Measurements taken from patent publication US20210187069A1.
Blank lines part the entries; values can stand above or below the binder they belong to.

Target: T1, wildtype SARM1 (endogenous, in wildtype mouse dorsal root ganglion neurons) (mouse) (UniProt Q6PDS3)
T1 sequence (looked up): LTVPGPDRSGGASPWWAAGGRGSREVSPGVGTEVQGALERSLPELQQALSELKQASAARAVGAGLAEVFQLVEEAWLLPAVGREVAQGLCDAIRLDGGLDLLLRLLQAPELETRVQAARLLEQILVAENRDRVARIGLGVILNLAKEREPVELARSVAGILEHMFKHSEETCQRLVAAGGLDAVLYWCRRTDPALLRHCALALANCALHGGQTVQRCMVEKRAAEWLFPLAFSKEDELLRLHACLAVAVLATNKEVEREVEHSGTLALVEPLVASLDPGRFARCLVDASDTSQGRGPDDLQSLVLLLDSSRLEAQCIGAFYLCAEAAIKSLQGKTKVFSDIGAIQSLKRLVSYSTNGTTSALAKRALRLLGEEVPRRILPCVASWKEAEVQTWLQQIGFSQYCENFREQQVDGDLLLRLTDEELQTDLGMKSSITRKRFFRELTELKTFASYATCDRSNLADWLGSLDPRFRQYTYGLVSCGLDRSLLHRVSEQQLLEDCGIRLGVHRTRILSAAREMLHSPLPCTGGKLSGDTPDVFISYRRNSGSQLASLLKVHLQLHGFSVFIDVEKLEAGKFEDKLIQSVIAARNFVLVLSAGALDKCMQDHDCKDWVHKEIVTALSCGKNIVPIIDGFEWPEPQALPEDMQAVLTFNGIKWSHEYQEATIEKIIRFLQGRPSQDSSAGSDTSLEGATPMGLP
Assay: cell-based or functional assay

B1: SARM1-deltaTIR (enzyme, not shown: large carriers)
chain: MLAVPGPDGGGGTGPWWAAGGRGPREVSPGAGTEVQDALERALPELQQALSALKQAGGARAVGAGLAEVFQLVEEAWLLPAVGREVAQGLCDAIRLDGGLDLLLRLLQAPELETRVQAARLLEQILVAENRDRVARIGLGVILNLAKEREPVELARSVAGILEHMFKHSEETCQRLVAAGGLDAVLYWCRRTDPALLRHCALALGNCALHGGQAVQRRMVEKRAAEWLFPLAFSKEDELLRLHACLAVAVLATNKEVEREVERSGTLALVEPLVASLDPGRFARCLVDASDTSQGRGPDDLQRLVPLLDSNRLEAQCIGAFYLCAEAAIKSLQGKTKVFSDIGAIQSLKRLVSYSTNGTKSALAKRALRLLGEEVPRPILPSVPSWKEAEVQTWLQQIGFSKYCESFREQQVDGDLLLRLTEEELQTDLGMKSGITRKRFFRELTELKTFANYSTCDRSNLADWLGSLDPRFRQYTYGLVSCGLDRSLLHRVSEQQLLEDCGIHLGVHRARILTAAREMLHSPLPCTGGKPSGDATT
axon degeneration (degeneration index) after axotomy of wildtype DRG neurons: 36 h

B2: SARM1-K597E (enzyme, not shown: large carriers)
chain: LAVPGPDGGGGTGPWWAAGGRGPREVSPGAGTEVQDALERALPELQQALSALKQAGGARAVGAGLAEVFQLVEEAWLLPAVGREVAQGLCDAIRLDGGLDLLLRLLQAPELETRVQAARLLEQILVAENRDRVARIGLGVILNLAKEREPVELARSVAGILEHMFKHSEETCQRLVAAGGLDAVLYWCRRTDPALLRHCALALGNCALHGGQAVQRRMVEKRAAEWLFPLAFSKEDELLRLHACLAVAVLATNKEVEREVERSGTLALVEPLVASLDPGRFARCLVDASDTSQGRGPDDLQRLVPLLDSNRLEAQCIGAFYLCAEAAIKSLQGKTKVFSDIGAIQSLKRLVSYSTNGTKSALAKRALRLLGEEVPRPILPSVPSWKEAEVQTWLQQIGFSKYCESFREQQVDGDLLLRLTEEELQTDLGMKSGITRKRFFRELTELKTFANYSTCDRSNLADWLGSLDPRFRQYTYGLVSCGLDRSLLHRVSEQQLLEDCGIHLGVHRARILTAAREMLHSPLPCTGGKPSGDTPDVFISYRRNSGSQLASLLKVHLQLHGFSVFIDVEELEAGKFEDKLIQSVMGARNFVLVLSPGALDKCMQDHDCKDWVHKEIVTALSCGKNIVPIIDGFEWPEPQVLPEDMQAVLTFNGIKWSHEYQEATIEKIIRFLQGRSSRDSSAGSDTSLEGAAPMGPTATT
axon degeneration (degeneration index) after axotomy of wildtype DRG neurons: 36 h

B7: SARM1-H685A/E642A (enzyme, not shown: large carriers)
chain: LAVPGPDGGGGTGPWWAAGGRGPREVSPGAGTEVQDALERALPELQQALSALKQAGGARAVGAGLAEVFQLVEEAWLLPAVGREVAQGLCDAIRLDGGLDLLLRLLQAPELETRVQAARLLEQILVAENRDRVARIGLGVILNLAKEREPVELARSVAGILEHMFKHSEETCQRLVAAGGLDAVLYWCRRTDPALLRHCALALGNCALHGGQAVQRRMVEKRAAEWLFPLAFSKEDELLRLHACLAVAVLATNKEVEREVERSGTLALVEPLVASLDPGRFARCLVDASDTSQGRGPDDLQRLVPLLDSNRLEAQCIGAFYLCAEAAIKSLQGKTKVFSDIGAIQSLKRLVSYSTNGTKSALAKRALRLLGEEVPRPILPSVPSWKEAEVQTWLQQIGFSKYCESFREQQVDGDLLLRLTEEELQTDLGMKSGITRKRFFRELTELKTFANYSTCDRSNLADWLGSLDPRFRQYTYGLVSCGLDRSLLHRVSEQQLLEDCGIHLGVHRARILTAAREMLHSPLPCTGGKPSGDTPDVFISYRRNSGSQLASLLKVHLQLHGFSVFIDVEKLEAGKFEDKLIQSVMGARNFVLVLSPGALDKCMQDHDCKDWVHKAIVTALSCGKNIVPIIDGFEWPEPQVLPEDMQAVLTFNGIKWSAEYQEATIEKIIRFLQGRSSRDSSAGSDTSLEGAAPMGPTATT
axon degeneration after 40 nM vincristine, wildtype DRG neurons: > 120 h

Second part, the binder after the results:

axon degeneration after 40 nM vincristine, wildtype DRG neurons: > 120 h
B3: SARM1-K193R/E642A (enzyme, not shown: large carriers)
chain: LAVPGPDGGGGTGPWWAAGGRGPREVSPGAGTEVQDALERALPELQQALSALKQAGGARAVGAGLAEVFQLVEEAWLLPAVGREVAQGLCDAIRLDGGLDLLLRLLQAPELETRVQAARLLEQILVAENRDRVARIGLGVILNLAKEREPVELARSVAGILEHMFRHSEETCQRLVAAGGLDAVLYWCRRTDPALLRHCALALGNCALHGGQAVQRRMVEKRAAEWLFPLAFSKEDELLRLHACLAVAVLATNKEVEREVERSGTLALVEPLVASLDPGRFARCLVDASDTSQGRGPDDLQRLVPLLDSNRLEAQCIGAFYLCAEAAIKSLQGKTKVFSDIGAIQSLKRLVSYSTNGTKSALAKRALRLLGEEVPRPILPSVPSWKEAEVQTWLQQIGFSKYCESFREQQVDGDLLLRLTEEELQTDLGMKSGITRKRFFRELTELKTFANYSTCDRSNLADWLGSLDPRFRQYTYGLVSCGLDRSLLHRVSEQQLLEDCGIHLGVHRARILTAAREMLHSPLPCTGGKPSGDTPDVFISYRRNSGSQLASLLKVHLQLHGFSVFIDVEKLEAGKFEDKLIQSVMGARNFVLVLSPGALDKCMQDHDCKDWVHKAIVTALSCGKNIVPIIDGFEWPEPQVLPEDMQAVLTFNGIKWSHEYQEATIEKIIRFLQGRSSRDSSAGSDTSLEGAAPMGPTATT

axon degeneration after axotomy of wildtype DRG neurons: > 120 h
B4: SARM1-K193R/H685A (enzyme, not shown: large carriers)
chain: LAVPGPDGGGGTGPWWAAGGRGPREVSPGAGTEVQDALERALPELQQALSALKQAGGARAVGAGLAEVFQLVEEAWLLPAVGREVAQGLCDAIRLDGGLDLLLRLLQAPELETRVQAARLLEQILVAENRDRVARIGLGVILNLAKEREPVELARSVAGILEHMFRHSEETCQRLVAAGGLDAVLYWCRRTDPALLRHCALALGNCALHGGQAVQRRMVEKRAAEWLFPLAFSKEDELLRLHACLAVAVLATNKEVEREVERSGTLALVEPLVASLDPGRFARCLVDASDTSQGRGPDDLQRLVPLLDSNRLEAQCIGAFYLCAEAAIKSLQGKTKVFSDIGAIQSLKRLVSYSTNGTKSALAKRALRLLGEEVPRPILPSVPSWKEAEVQTWLQQIGFSKYCESFREQQVDGDLLLRLTEEELQTDLGMKSGITRKRFFRELTELKTFANYSTCDRSNLADWLGSLDPRFRQYTYGLVSCGLDRSLLHRVSEQQLLEDCGIHLGVHRARILTAAREMLHSPLPCTGGKPSGDTPDVFISYRRNSGSQLASLLKVHLQLHGFSVFIDVEKLEAGKFEDKLIQSVMGARNFVLVLSPGALDKCMQDHDCKDWVHKEIVTALSCGKNIVPIIDGFEWPEPQVLPEDMQAVLTFNGIKWSAEYQEATIEKIIRFLQGRSSRDSSAGSDTSLEGAAPMGPTATT

axon degeneration (degeneration index) and TMRM-positive mitochondria after axotomy of wildtype DRG neurons: > 96 h
axon degeneration after 40 nM vincristine, wildtype DRG neurons: > 120 h
axon degeneration and TMRM-positive mitochondria after 40 nM vincristine, wildtype DRG neurons: > 96 h
B5: SARM1-K193R/H194A/H685A (SARM1-compound dominant negative) (enzyme, not shown: large carriers)
chain: LAVPGPDGGGGTGPWWAAGGRGPREVSPGAGTEVQDALERALPELQQALSALKQAGGARAVGAGLAEVFQLVEEAWLLPAVGREVAQGLCDAIRLDGGLDLLLRLLQAPELETRVQAARLLEQILVAENRDRVARIGLGVILNLAKEREPVELARSVAGILEHMFRASEETCQRLVAAGGLDAVLYWCRRTDPALLRHCALALGNCALHGGQAVQRRMVEKRAAEWLFPLAFSKEDELLRLHACLAVAVLATNKEVEREVERSGTLALVEPLVASLDPGRFARCLVDASDTSQGRGPDDLQRLVPLLDSNRLEAQCIGAFYLCAEAAIKSLQGKTKVFSDIGAIQSLKRLVSYSTNGTKSALAKRALRLLGEEVPRPILPSVPSWKEAEVQTWLQQIGFSKYCESFREQQVDGDLLLRLTEEELQTDLGMKSGITRKRFFRELTELKTFANYSTCDRSNLADWLGSLDPRFRQYTYGLVSCGLDRSLLHRVSEQQLLEDCGIHLGVHRARILTAAREMLHSPLPCTGGKPSGDTPDVFISYRRNSGSQLASLLKVHLQLHGFSVFIDVEKLEAGKFEDKLIQSVMGARNFVLVLSPGALDKCMQDHDCKDWVHKEIVTALSCGKNIVPIIDGFEWPEPQVLPEDMQAVLTFNGIKWSAEYQEATIEKIIRFLQGRSSRDSSAGSDTSLEGAAPMGPTATT

axon degeneration after axotomy: 24 h
B6: SARM1 D627K (enzyme, not shown: large carriers)
chain: LAVPGPDGGGGTGPWWAAGGRGPREVSPGAGTEVQDALERALPELQQALSALKQAGGARAVGAGLAEVFQLVEEAWLLPAVGREVAQGLCDAIRLDGGLDLLLRLLQAPELETRVQAARLLEQILVAENRDRVARIGLGVILNLAKEREPVELARSVAGILEHMFKHSEETCQRLVAAGGLDAVLYWCRRTDPALLRHCALALGNCALHGGQAVQRRMVEKRAAEWLFPLAFSKEDELLRLHACLAVAVLATNKEVEREVERSGTLALVEPLVASLDPGRFARCLVDASDTSQGRGPDDLQRLVPLLDSNRLEAQCIGAFYLCAEAAIKSLQGKTKVFSDIGAIQSLKRLVSYSTNGTKSALAKRALRLLGEEVPRPILPSVPSWKEAEVQTWLQQIGFSKYCESFREQQVDGDLLLRLTEEELQTDLGMKSGITRKRFFRELTELKTFANYSTCDRSNLADWLGSLDPRFRQYTYGLVSCGLDRSLLHRVSEQQLLEDCGIHLGVHRARILTAAREMLHSPLPCTGGKPSGDTPDVFISYRRNSGSQLASLLKVHLQLHGFSVFIDVEKLEAGKFEDKLIQSVMGARNFVLVLSPGALKKCMQDHDCKDWVHKEIVTALSCGKNIVPIIDGFEWPEPQVLPEDMQAVLTFNGIKWSHEYQEATIEKIIRFLQGRSSRDSSAGSDTSLEGAAPMGPTATT
